Measurements published in paper doi:10.1101/2020.10.06.327809 (bioRxiv, 2020).

Molecular target: the molecule itself
Experiment: SEC

B1: SepF-His (H. volcanii SepF expressed in E. coli, plasmid pSVA3969) (natural protein, Haloferax volcanii, UniProt D4H018 1-118, looked up)
chain: MGIMSKILGGGGSRTTEDYVELDLDDFDTARGDAGLSVHIAEIGGQQDVIAIKDAVYDGNLVIADITRHTTSDSTMEHIIDDLRQVAREVDGDIVQKGDDQIVITPTGISISRQKLNG
- stoichiometry N: 2
